{"source": "patent US6750057", "key": {"[1]": {"test_system": "T1, MBP-XB3", "T1 sequence": "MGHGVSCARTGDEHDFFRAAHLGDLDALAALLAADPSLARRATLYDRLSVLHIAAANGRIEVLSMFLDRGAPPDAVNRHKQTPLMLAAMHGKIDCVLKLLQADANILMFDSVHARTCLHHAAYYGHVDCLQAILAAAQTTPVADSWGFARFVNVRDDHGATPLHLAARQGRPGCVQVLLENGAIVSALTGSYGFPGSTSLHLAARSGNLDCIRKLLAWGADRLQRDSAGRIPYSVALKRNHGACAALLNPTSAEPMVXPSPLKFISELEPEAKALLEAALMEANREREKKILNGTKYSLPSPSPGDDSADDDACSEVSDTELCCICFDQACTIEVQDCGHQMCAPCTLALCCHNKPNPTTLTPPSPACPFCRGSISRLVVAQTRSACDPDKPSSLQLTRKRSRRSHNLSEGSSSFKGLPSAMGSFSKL"}, "[2]": {"test_system": "Native MBP [MBP: P0AEX9]"}}}
{"substance": "GST-XA21", "values": [{"measurement": "transphosphorylation assay with [gamma-32P]ATP", "setting": "[1]", "value": "GST-XA21 phosphorylated itself and MBP-XB3, but not MBP alone"}, {"measurement": "transphosphorylation assay with [gamma-32P]ATP", "setting": "[2]", "value": "GST-XA21 phosphorylated itself and MBP-XB3, but not MBP alone"}]}
